Molecular target: T1, Programmed cell death 4 (Pdcd4), endogenous in HEK293 cells (human (endogenous in HEK293), UniProt Q53EL6 1-469)
T1 sequence (looked up): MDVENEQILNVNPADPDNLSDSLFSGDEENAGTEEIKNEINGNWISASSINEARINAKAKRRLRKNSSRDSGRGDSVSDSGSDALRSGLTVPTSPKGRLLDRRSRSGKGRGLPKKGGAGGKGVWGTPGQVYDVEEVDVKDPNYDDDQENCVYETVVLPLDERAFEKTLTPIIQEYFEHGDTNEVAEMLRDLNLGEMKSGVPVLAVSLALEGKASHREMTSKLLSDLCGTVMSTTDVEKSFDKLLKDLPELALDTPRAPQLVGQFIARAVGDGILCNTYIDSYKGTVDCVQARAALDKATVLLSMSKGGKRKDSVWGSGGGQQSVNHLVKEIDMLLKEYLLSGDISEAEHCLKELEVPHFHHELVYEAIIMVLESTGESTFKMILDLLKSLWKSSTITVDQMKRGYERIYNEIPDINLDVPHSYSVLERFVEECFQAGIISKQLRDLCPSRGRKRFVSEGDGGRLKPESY
Experiment: cell-based or functional assay

B1: β-transducin repeat-containing protein 1 (β-TrCP1), overexpressed in HEK293 cells (natural protein, UniProt Q9Y297 1-605, looked up)
chain: MDPAEAVLQEKALKFMCSMPRSLWLGCSSLADSMPSLRCLYNPGTGALTAFQNSSEREDCNNGEPPRKIIPEKNSLRQTYNSCARLCLNQETVCLASTAMKTENCVAKTKLANGTSSMIVPKQRKLSASYEKEKELCVKYFEQWSESDQVEFVEHLISQMCHYQHGHINSYLKPMLQRDFITALPARGLDHIAENILSYLDAKSLCAAELVCKEWYRVTSDGMLWKKLIERMVRTDSLWRGLAERRGWGQYLFKNKPPDGNAPPNSFYRALYPKIIQDIETIESNWRCGRHSLQRIHCRSETSKGVYCLQYDDQKIVSGLRDNTIKIWDKNTLECKRILTGHTGSVLCLQYDERVIITGSSDSTVRVWDVNTGEMLNTLIHHCEAVLHLRFNNGMMVTCSKDRSIAVWDMASPTDITLRRVLVGHRAAVNVVDFDDKYIVSASGDRTIKVWNTSTCEFVRTLNGHKRGIACLQYRDRLVVSGSSDNTIRLWDIECGACLRVLEGHEELVRCIRFDNKRIVSGAYDGKIKVWDLVAALDPRAPAGTLCLRTLVEHSGRVFRLQFDEFQIVSSSHDDTILIWDFLNDPAAQAEPPRSPSRTYTYISR
endogenous Pdcd4 protein level (western densitometry, relative to the DMSO control) in HEK293 cells treated 8 h with TPA (10 nM) and erioflorin (0.625–5 µM): 121 % of DMSO control
